Data reported in patent publication US20190134153A1, “IMMUNOMODULATORY EFFECT OF INHALED KINASE INHIBITOR PEPTIDES IN LUNG” (MOERAE MATRIX, INC., priority 2017, published 2019).

Legend:
Experiment in all cases: Kinase Profiling Assay
Type in all cases: biochemical
Conditions in all cases: 100 μM
ALK(h) = ALK(h) (Homo sapiens, UniProt Q9UM73)
Aurora-B(h) = Aurora-B(h) (Homo sapiens, UniProt Q96GD4)
DDR2(h) = target: T1, DDR2(h) (Homo sapiens, UniProt Q16832)
T1 sequence (Q16832 22-855): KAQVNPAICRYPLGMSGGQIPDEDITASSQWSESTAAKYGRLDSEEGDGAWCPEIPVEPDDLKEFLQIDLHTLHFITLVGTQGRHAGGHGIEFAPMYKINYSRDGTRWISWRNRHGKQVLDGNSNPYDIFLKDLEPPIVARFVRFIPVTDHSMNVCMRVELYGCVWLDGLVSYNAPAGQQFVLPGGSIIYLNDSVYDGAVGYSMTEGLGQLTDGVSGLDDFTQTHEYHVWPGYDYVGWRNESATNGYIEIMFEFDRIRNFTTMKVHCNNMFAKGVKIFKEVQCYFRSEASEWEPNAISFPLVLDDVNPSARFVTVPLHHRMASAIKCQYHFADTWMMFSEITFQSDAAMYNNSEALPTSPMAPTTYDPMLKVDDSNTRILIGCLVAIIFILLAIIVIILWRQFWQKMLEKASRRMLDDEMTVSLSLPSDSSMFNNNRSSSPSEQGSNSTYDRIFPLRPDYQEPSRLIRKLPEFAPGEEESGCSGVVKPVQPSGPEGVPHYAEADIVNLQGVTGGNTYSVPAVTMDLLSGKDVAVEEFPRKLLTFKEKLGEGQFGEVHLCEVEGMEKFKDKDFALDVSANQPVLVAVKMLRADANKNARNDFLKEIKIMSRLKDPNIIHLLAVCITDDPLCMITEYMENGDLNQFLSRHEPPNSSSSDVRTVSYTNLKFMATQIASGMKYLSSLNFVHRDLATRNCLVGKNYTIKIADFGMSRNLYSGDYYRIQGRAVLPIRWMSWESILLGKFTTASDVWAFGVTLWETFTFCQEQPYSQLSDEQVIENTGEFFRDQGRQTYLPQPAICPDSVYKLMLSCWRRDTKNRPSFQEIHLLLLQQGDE

EphA4(h) = EphA4(h) (Homo sapiens, UniProt P54764)
EphB3(h) = target: T2, EphB3(h) (Homo sapiens, UniProt P54753)
T2 sequence (P54753 34-998): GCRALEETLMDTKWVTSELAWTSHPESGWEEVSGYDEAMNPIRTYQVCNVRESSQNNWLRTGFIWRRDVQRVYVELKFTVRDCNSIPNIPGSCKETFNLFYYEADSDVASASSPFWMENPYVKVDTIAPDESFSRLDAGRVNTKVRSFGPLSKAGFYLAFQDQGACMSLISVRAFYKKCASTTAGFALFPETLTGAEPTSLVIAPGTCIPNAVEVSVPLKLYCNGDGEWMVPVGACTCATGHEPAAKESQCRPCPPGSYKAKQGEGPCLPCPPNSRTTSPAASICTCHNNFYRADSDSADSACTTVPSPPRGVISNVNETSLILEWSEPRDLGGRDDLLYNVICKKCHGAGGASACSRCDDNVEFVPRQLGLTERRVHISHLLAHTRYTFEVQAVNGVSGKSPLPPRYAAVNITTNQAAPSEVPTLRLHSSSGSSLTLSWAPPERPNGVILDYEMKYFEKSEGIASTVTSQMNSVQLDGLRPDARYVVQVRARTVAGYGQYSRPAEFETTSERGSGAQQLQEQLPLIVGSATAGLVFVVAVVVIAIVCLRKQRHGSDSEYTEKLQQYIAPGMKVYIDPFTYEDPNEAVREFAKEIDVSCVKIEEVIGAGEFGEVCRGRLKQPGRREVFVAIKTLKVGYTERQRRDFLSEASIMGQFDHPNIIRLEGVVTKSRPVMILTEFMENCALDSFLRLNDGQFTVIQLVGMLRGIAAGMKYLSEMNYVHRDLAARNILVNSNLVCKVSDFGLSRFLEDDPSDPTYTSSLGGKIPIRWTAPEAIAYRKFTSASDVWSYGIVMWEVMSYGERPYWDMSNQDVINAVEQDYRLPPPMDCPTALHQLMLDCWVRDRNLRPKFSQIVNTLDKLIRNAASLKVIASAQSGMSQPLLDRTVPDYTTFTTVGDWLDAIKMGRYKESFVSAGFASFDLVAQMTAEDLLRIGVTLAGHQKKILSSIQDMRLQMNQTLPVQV

FGFR1(V561M)(h) = FGFR1(V561M)(h) (Homo sapiens, UniProt P11362, V561M)
Fms(Y969C)(h) = Fms(Y969C)(h) (Homo sapiens, UniProt P07333, Y969C)
GRK6(h) = GRK6(h) (Homo sapiens, UniProt P43250)
IR(h), activated = IR(h), activated (Homo sapiens, UniProt P06213)
Met(h) = Met(h) (Homo sapiens, UniProt P08581)
Met(Y1248C)(h) = Met(Y1248C)(h) (Homo sapiens, UniProt P08581, Y1230C)
mTOR(h) = mTOR(h) (Homo sapiens, UniProt P42345)
PAK4(h) = PAK4(h) (Homo sapiens, UniProt O96013)
Ros(h) = Ros(h) (Homo sapiens, UniProt P08922)

Sequence of GRK6(h) (P43250 whole entry): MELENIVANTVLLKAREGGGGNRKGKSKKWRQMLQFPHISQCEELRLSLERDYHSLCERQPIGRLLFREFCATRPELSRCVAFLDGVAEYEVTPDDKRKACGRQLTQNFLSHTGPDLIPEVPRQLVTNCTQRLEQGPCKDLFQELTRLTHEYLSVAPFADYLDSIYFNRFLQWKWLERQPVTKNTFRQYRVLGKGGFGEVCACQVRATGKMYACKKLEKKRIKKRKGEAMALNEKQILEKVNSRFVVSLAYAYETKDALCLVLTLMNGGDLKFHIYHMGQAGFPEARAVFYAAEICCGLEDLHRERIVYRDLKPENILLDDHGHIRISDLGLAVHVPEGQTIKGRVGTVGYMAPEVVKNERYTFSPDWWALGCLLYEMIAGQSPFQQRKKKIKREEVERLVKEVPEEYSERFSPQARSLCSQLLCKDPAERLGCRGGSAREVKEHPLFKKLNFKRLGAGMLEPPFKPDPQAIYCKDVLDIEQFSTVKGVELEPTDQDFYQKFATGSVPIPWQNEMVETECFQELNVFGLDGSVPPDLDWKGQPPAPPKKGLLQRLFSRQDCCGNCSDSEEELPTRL
Sequence of ALK(h) (Q9UM73 19-1620): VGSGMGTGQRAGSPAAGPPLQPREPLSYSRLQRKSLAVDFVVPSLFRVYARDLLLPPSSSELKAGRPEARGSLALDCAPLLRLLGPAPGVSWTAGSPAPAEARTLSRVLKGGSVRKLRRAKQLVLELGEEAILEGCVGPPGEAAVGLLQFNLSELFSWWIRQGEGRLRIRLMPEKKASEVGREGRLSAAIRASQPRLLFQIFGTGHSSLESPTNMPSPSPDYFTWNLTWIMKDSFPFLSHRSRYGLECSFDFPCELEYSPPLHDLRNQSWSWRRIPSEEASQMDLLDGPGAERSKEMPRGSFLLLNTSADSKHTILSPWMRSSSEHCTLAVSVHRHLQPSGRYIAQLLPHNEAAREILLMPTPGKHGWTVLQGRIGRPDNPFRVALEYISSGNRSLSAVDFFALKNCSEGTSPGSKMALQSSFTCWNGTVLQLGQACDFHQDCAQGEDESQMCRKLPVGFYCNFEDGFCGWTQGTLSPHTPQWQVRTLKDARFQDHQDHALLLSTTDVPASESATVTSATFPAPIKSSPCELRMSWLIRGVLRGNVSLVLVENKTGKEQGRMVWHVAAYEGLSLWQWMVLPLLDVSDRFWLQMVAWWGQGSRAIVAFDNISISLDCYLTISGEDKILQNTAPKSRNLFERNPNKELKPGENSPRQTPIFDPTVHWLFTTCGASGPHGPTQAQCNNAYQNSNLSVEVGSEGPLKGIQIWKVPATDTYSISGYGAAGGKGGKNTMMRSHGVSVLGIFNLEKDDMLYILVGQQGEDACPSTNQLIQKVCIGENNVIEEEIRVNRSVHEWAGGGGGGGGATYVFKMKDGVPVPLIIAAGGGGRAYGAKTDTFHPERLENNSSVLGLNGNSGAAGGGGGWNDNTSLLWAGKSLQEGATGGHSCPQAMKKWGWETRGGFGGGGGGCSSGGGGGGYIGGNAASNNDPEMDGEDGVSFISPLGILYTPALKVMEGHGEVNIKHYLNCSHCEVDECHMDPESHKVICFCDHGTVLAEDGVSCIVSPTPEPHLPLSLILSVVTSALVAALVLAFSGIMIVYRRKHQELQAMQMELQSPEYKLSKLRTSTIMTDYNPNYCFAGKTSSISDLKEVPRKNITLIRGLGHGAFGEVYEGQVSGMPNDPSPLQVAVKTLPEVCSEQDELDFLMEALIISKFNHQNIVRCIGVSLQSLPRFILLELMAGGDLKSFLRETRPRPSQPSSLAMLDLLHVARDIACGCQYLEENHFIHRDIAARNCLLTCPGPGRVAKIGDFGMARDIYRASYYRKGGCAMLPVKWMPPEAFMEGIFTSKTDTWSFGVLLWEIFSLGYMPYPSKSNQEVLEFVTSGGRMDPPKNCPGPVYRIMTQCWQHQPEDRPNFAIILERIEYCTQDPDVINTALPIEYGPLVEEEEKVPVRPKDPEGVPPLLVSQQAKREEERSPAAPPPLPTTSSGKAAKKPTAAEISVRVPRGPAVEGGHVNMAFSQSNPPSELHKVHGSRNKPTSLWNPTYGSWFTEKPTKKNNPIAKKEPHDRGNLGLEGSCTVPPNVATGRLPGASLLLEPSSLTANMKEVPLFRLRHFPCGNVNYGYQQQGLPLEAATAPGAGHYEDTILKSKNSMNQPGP
Sequence of EphA4(h) (P54764 20-986): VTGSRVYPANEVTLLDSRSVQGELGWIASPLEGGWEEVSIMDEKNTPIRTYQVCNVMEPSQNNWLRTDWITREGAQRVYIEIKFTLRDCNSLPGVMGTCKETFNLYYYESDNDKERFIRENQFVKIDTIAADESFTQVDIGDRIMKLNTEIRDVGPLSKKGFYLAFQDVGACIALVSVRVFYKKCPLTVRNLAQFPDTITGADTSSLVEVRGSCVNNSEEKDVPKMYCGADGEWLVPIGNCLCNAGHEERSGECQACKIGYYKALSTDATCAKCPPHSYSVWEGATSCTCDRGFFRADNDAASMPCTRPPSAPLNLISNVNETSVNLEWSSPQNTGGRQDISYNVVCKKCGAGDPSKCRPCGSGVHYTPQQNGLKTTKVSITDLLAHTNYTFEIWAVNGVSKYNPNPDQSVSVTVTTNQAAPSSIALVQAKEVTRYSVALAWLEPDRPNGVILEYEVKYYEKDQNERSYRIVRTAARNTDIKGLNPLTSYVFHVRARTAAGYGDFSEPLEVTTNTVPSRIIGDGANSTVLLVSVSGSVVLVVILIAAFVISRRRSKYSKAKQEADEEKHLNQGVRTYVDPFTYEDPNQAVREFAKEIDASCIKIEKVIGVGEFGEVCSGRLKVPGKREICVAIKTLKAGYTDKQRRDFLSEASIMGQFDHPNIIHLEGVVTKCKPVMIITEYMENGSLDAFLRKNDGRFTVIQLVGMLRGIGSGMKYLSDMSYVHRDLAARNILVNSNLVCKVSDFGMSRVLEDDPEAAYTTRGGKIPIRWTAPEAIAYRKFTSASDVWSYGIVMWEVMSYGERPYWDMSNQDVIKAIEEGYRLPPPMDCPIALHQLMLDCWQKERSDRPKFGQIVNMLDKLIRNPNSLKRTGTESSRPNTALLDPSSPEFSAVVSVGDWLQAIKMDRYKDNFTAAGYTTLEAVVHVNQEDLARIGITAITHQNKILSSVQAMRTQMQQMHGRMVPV
Sequence of PAK4(h) (O96013 whole entry): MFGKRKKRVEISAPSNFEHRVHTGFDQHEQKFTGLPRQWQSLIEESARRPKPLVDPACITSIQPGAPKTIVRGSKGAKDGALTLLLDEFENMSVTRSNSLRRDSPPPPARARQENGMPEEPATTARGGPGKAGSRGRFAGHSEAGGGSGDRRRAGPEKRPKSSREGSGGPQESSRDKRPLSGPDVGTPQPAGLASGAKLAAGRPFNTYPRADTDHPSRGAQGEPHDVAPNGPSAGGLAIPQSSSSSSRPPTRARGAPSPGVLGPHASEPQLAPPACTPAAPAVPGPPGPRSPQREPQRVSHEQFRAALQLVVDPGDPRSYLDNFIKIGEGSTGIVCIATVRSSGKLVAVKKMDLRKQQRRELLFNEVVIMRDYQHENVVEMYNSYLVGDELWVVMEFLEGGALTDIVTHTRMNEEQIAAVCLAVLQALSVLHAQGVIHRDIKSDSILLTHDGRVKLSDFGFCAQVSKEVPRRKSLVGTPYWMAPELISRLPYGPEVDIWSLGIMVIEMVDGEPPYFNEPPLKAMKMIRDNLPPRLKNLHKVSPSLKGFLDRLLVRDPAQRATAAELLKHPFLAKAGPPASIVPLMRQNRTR
Sequence of Aurora-B(h) (Q96GD4 whole entry): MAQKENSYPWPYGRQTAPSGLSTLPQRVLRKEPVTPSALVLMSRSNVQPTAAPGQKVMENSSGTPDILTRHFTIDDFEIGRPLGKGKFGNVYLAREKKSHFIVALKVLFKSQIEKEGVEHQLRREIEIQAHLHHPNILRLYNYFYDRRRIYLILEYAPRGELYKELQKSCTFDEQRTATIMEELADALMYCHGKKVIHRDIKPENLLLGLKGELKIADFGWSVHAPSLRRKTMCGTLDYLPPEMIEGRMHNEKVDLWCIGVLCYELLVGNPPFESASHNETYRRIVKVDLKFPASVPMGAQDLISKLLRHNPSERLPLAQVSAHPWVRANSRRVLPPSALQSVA
Sequence of FGFR1(V561M)(h) (P11362 22-822 V561M): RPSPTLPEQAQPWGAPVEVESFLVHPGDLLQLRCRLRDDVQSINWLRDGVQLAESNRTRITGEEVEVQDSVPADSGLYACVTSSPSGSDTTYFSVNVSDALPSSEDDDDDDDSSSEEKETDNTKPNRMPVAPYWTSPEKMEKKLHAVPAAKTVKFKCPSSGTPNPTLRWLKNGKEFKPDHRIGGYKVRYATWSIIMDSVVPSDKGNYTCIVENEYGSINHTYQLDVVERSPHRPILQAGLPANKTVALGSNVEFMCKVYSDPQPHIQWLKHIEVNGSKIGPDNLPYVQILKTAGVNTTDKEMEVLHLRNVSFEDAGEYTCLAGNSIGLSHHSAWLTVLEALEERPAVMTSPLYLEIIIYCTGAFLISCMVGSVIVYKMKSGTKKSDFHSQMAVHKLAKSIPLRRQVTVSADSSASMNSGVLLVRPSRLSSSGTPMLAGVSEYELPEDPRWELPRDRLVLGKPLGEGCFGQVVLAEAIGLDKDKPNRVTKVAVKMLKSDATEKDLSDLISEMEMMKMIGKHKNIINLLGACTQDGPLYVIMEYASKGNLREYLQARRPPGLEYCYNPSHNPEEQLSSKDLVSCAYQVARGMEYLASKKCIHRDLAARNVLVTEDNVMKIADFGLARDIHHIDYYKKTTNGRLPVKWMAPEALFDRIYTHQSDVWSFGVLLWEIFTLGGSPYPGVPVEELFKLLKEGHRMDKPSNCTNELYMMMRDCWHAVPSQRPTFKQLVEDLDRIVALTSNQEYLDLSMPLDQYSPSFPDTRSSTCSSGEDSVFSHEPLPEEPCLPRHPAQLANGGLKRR

Sequence | % activity (ALK(h)) | % activity (Aurora-B(h)) | % activity (DDR2(h)) | % activity (EphA4(h)) | % activity (EphB3(h)) | % activity (FGFR1(V561M)(h)) | % activity (Fms(Y969C)(h)) | % activity (GRK6(h)) | % activity (IR(h), activated) | % activity (Met(h)) | % activity (Met(Y1248C)(h)) | % activity (mTOR(h)) | % activity (PAK4(h)) | % activity (Ros(h))
FAKLAARLYRKALARQLGVAA [MMI-0300] | 19% | 128% | 94% | 88% | 62% | 74% | 72% | 147% | 79% | 65% | 84% | 91% | 94% | 95%
YARAAARQARAKALNRQLGVA [MMI-0200] | 95% | 166% |  | 127% | 128% | 72% | 88% | 132% |  | 71% | 141% | 110% | 98% | 86%
KAFAKLAARLYRKALARQLGVAA [MMI-0400] | 16% | 150% | 95% | 65% | 47% | 74% | 91% | 141% | 59% | 62% | 36% | 93% | 89% | 99%
HRRIKAWLKKIKALARQLGVAA [MMI-0500] | 12% | 5% | 79% | 48% | 79% |  |  | 174% | 90% | 27% | 73% | 135% | 86% | 150%
